Test results published in paper PMC8624160.

target: thrombin (UniProt P00734;P00734 328-363;364-622); assay: fluorescence attenuation kinetics (kapp); Binding buffer, salt, pH and temperature not given in the material (PBS listed among reagents); ex/em 333/426 nm, constant SITS-aptamer, thrombin titrated, trip

Binder	Kd [nM]
GTCCGTGGTAGGGCAGGTTGGGGTGAC (structured_DNA, 3' (CH2)6-NH2 linker coupled to SITS) [SITS-Thrombin27 3']	437
AGTCCGTGGTAGGGCAGGTTGGGGTGACT (structured_DNA, 3' (CH2)6-NH2 linker coupled to SITS) [SITS-Thrombin29 3']	180
GGTTGGTGTGGTTGG (structured_DNA, 5' NH2-(CH2)6 linker coupled to SITS) [SITS-Thrombin15 5']	10800
AGTCCGTGGTAGGGCAGGTTGGGGTGACT (structured_DNA, 5' NH2-(CH2)6 linker coupled to SITS) [SITS-Thrombin29 5']	851
GGTTGGTGTGGTTGG (structured_DNA, 3' (CH2)6-NH2 linker coupled to SITS) [SITS-Thrombin15 3']	4980
GTCCGTGGTAGGGCAGGTTGGGGTGAC (structured_DNA, 5' NH2-(CH2)6 linker coupled to SITS) [SITS-Thrombin27 5']	1590
